Assays:
HLA-C*14:02 = assay: IEDB peptide-MHC binding, purified MHC/direct/fluorescence; filed as Kd, often an IC50 or EC50 that approximates it; ≥ and ≤ were set here for values at or beyond the usual limits of such assays
HLA-B*07:02 = assay: as above
HLA-A*01:01 = assay: as above
HLA-A*02:01 [1] = assay: as above
HLA-A*03:01 [2] = assay: as above
HLA-A*11:01 = assay: as above
HLA-A*24:02 [3] = assay: as above
HLA-A*31:01 = assay: as above
HLA-A*69:01 = assay: as above
HLA-B*08:01 [4] = assay: as above
HLA-B*08:02 = assay: as above
HLA-B*15:01 [5] = assay: as above
HLA-B*27:05 = assay: as above
HLA-B*46:01 [6] = assay: as above
HLA-B*58:01 = assay: as above
HLA-B*08:01 [7] = assay: IEDB peptide-MHC binding, purified MHC/competitive/fluorescence; filed as Kd, often an IC50 or EC50 that approximates it; ≥ and ≤ were set here for values at or beyond the usual limits of such assays
HLA-B*18:01 [8] = assay: IEDB peptide-MHC binding, purified MHC/direct/fluorescence; filed as Kd, often an IC50 or EC50 that approximates it; ≥ and ≤ were set here for values at or beyond the usual limits of such assays
HLA-B*40:01 = assay: as above
HLA-B*44:02 = assay: as above
HLA-A*26:01 [9] = assay: as above
HLA-C*03:03 = assay: as above; conditions: source organism: Yersinia pestis Nepal516
HLA-C*12:03 = assay: as above; conditions: source organism: Yersinia pestis Nepal516
HLA-A*02:01 [10] = assay: IEDB peptide-MHC binding, purified MHC/competitive/fluorescence; filed as Kd, often an IC50 or EC50 that approximates it; ≥ and ≤ were set here for values at or beyond the usual limits of such assays
HLA-B*35:01 = assay: as above; conditions: source organism: Yersinia pestis Nepal516
HLA-B*39:01 = assay: as above
HLA-C*05:01 = assay: IEDB peptide-MHC binding, purified MHC/direct/fluorescence; filed as Kd, often an IC50 or EC50 that approximates it; ≥ and ≤ were set here for values at or beyond the usual limits of such assays; conditions: source organism: Influenza A virus H3N2
HLA-A*02:01 [11] = assay: IEDB peptide-MHC binding, purified MHC/competitive/fluorescence; ≥ and ≤ were set here for values at or beyond the usual limits of such assays; conditions: source organism: Vaccinia virus
HLA-A*03:01 [12] = assay: as above; conditions: source organism: Vaccinia virus
HLA-A*24:02 [13] = assay: as above; conditions: source organism: Vaccinia virus
HLA-B*15:01 [14] = assay: as above; conditions: source organism: Vaccinia virus
HLA-B*15:03 = assay: IEDB peptide-MHC binding, purified MHC/competitive/radioactivity; filed as Kd, often an IC50 or EC50 that approximates it; ≥ and ≤ were set here for values at or beyond the usual limits of such assays; conditions: source organism: Vaccinia virus WR
HLA-A*02:19 = assay: IEDB peptide-MHC binding, purified MHC/competitive/fluorescence; filed as Kd, often an IC50 or EC50 that approximates it; ≥ and ≤ were set here for values at or beyond the usual limits of such assays; conditions: source organism: Entamoeba histolytica HM-1:IMSS
HLA-A*03:01 [15] = assay: as above; conditions: source organism: Entamoeba histolytica HM-1:IMSS
HLA-A*26:01 [16] = assay: as above; conditions: source organism: Entamoeba histolytica HM-1:IMSS
HLA-A*29:02 = assay: as above; conditions: source organism: Entamoeba histolytica HM-1:IMSS
HLA-B*15:01 [17] = assay: as above; conditions: source organism: Entamoeba histolytica HM-1:IMSS
HLA-B*15:17 = assay: as above; conditions: source organism: Entamoeba histolytica HM-1:IMSS
HLA-B*18:01 [18] = assay: as above; conditions: source organism: Entamoeba histolytica HM-1:IMSS
HLA-B*27:03 = assay: as above; conditions: source organism: Entamoeba histolytica HM-1:IMSS
HLA-B*46:01 [19] = assay: as above; conditions: source organism: Entamoeba histolytica HM-1:IMSS
HLA-B*51:01 = assay: as above; conditions: source organism: Entamoeba histolytica HM-1:IMSS
HLA-B*57:01 = assay: as above; conditions: source organism: Entamoeba histolytica HM-1:IMSS
[20] = source organism: Mycobacterium tuberculosis variant bovis BCG str. Pasteur 1173P2
[21] = source organism: Influenza A virus (A/Duck/Shantou/2088/01(H9N2))
[22] = source organism: Influenza A virus (A/Puerto Rico/8/34/Mount Sinai(H1N1))
[23] = source organism: Escherichia coli O157:H7
[24] = source organism: Brucella abortus
[25] = source organism: Brucella suis 1330
[26] = source organism: Yersinia pestis Nepal516
[27] = source organism: Influenza A virus (A/Ck/HK/2133.1/2003(H5N1))
[28] = source organism: Giardia lamblia ATCC 50803

## APINSATAM
HLA-C*14:02; [20]
  Kd: 0.321 µM

## APPPFRLPL
HLA-B*07:02; [20]
  Kd: 0.0775 µM
HLA-C*14:02; source organism: Mycobacterium tuberculosis H37Rv
  Kd: 0.714 µM

## EEMATKADY
HLA-A*01:01; [21]
  Kd: ≥ 20 µM
HLA-A*02:01 [1]; [21]
  Kd: ≥ 20 µM
HLA-A*03:01 [2]; [21]
  Kd: ≥ 20 µM
HLA-A*11:01; [21]
  Kd: ≥ 20 µM
HLA-A*24:02 [3]; [21]
  Kd: ≥ 20 µM
HLA-A*31:01; [21]
  Kd: ≥ 20 µM
HLA-A*69:01; [21]
  Kd: ≥ 20 µM
HLA-B*07:02; [21]
  Kd: ≥ 20 µM
HLA-B*08:01 [4]; [21]
  Kd: ≥ 20 µM
HLA-B*08:02; source organism: Influenza A virus (A/Taiwan/2/2006(H1N1))
  Kd: ≥ 20 µM
HLA-B*15:01 [5]; [22]
  Kd: 1.46 µM
HLA-B*27:05; [21]
  Kd: ≥ 20 µM
HLA-B*46:01 [6]; [21]
  Kd: ≥ 20 µM
HLA-B*58:01; [21]
  Kd: ≥ 20 µM

## EYIWRSLKI
HLA-A*24:02 [3]; source organism: Entamoeba histolytica
  Kd: ≤ 0.001 µM

## FDERRNRYL
HLA-B*08:01 [7]; source organism: Influenza A virus (A/parakeet/Narita/92A/98(H9N2))
  Kd: ≥ 20 µM

## LPPERRQPF
HLA-A*01:01; [23]
  Kd: ≥ 20 µM
HLA-A*02:01 [1]; [23]
  Kd: ≥ 20 µM
HLA-A*03:01 [2]; [23]
  Kd: ≥ 20 µM
HLA-A*11:01; [23]
  Kd: ≥ 20 µM
HLA-A*24:02 [3]; [23]
  Kd: ≥ 20 µM
HLA-A*31:01; [23]
  Kd: ≥ 20 µM
HLA-A*69:01; [23]
  Kd: ≥ 20 µM
HLA-B*07:02; [23]
  Kd: 0.376 µM
HLA-B*15:01 [5]; [23]
  Kd: ≥ 20 µM
HLA-B*18:01 [8]; [23]
  Kd: ≥ 20 µM
HLA-B*27:05; [23]
  Kd: ≥ 20 µM
HLA-B*40:01; [23]
  Kd: ≥ 20 µM
HLA-B*44:02; [23]
  Kd: ≥ 20 µM
HLA-B*46:01 [6]; [23]
  Kd: ≥ 20 µM
HLA-B*58:01; [23]
  Kd: ≥ 20 µM

## LTDAFHGYH
HLA-A*01:01; [24]
  Kd: 0.0754 µM
HLA-A*02:01 [1]; [24]
  Kd: ≥ 20 µM
HLA-A*03:01 [2]; [24]
  Kd: ≥ 20 µM
HLA-A*24:02 [3]; [24]
  Kd: ≥ 20 µM
HLA-A*26:01 [9]; [25]
  Kd: ≥ 20 µM
HLA-B*07:02; [24]
  Kd: ≥ 20 µM
HLA-B*08:01 [4]; [25]
  Kd: ≥ 20 µM
HLA-B*08:02; [25]
  Kd: ≥ 20 µM
HLA-B*15:01 [5]; [24]
  Kd: ≥ 20 µM
HLA-B*18:01 [8]; [24]
  Kd: ≥ 20 µM
HLA-B*27:05; [24]
  Kd: ≥ 20 µM
HLA-B*40:01; [24]
  Kd: ≥ 20 µM
HLA-B*44:02; [24]
  Kd: ≥ 20 µM
HLA-B*46:01 [6]; [24]
  Kd: ≥ 20 µM
HLA-B*58:01; [24]
  Kd: ≥ 20 µM

## MLMAASRAL
HLA-C*03:03
  Kd: 0.002 µM
HLA-C*12:03
  Kd: 0.361 µM
HLA-A*02:01 [10]; [26]
  Kd: 0.0011 µM
HLA-B*08:01 [7]; [26]
  Kd: 0.0396 µM
HLA-B*35:01
  Kd: 0.0471 µM
HLA-B*39:01; [26]
  Kd: 0.0012 µM

## SADPLASLL
HLA-A*02:01 [1]; [27]
  Kd: ≥ 20 µM
HLA-A*11:01; [27]
  Kd: ≥ 20 µM
HLA-A*24:02 [3]; [27]
  Kd: ≥ 20 µM
HLA-A*31:01; [27]
  Kd: ≥ 20 µM
HLA-B*07:02; [27]
  Kd: ≥ 20 µM
HLA-B*08:01 [4]; [27]
  Kd: ≥ 20 µM
HLA-B*08:02; source organism: Influenza A virus(A/swine/Shandong/fNY/2003(H9N2))
  Kd: ≥ 20 µM
HLA-B*15:01 [5]; [27]
  Kd: ≥ 20 µM
HLA-B*27:05; [22]
  Kd: 1.37 µM
HLA-B*40:01; [22]
  Kd: 3.25 µM
HLA-B*44:02; [27]
  Kd: ≥ 20 µM
HLA-B*58:01; [27]
  Kd: ≥ 20 µM
HLA-C*05:01
  Kd: ≤ 0.001 µM
HLA-B*39:01; source organism: Influenza A virus H3N2
  Kd: 0.157 µM

## SDRLHHDPL
HLA-A*01:01; [28]
  Kd: ≥ 20 µM
HLA-A*02:01 [1]; [28]
  Kd: ≥ 20 µM
HLA-A*03:01 [2]; [28]
  Kd: ≥ 20 µM
HLA-A*11:01; [28]
  Kd: ≥ 20 µM
HLA-A*24:02 [3]; [28]
  Kd: ≥ 20 µM
HLA-A*26:01 [9]; [28]
  Kd: ≥ 20 µM
HLA-A*31:01; [28]
  Kd: ≥ 20 µM
HLA-A*69:01; [28]
  Kd: ≥ 20 µM
HLA-B*07:02; [28]
  Kd: ≥ 20 µM
HLA-B*08:02; [28]
  Kd: ≥ 20 µM
HLA-B*15:01 [5]; [28]
  Kd: ≥ 20 µM
HLA-B*27:05; [28]
  Kd: ≥ 20 µM
HLA-B*40:01; [28]
  Kd: 0.28 µM
HLA-B*44:02; [28]
  Kd: ≥ 20 µM
HLA-B*46:01 [6]; [28]
  Kd: ≥ 20 µM
HLA-B*58:01; [28]
  Kd: ≥ 20 µM

## SLYPNVCIF
HLA-A*02:01 [11]
  IC50: 1.88 µM
HLA-A*03:01 [12]
  IC50: ≥ 365 µM
HLA-A*24:02 [13]
  IC50: 0.0384 µM
HLA-B*15:01 [14]
  IC50: 5.7 µM
HLA-B*15:03
  Kd: 0.00494 µM

## YLHIHPFKI
HLA-A*02:01 [10]; source organism: Entamoeba histolytica HM-1:IMSS
  Kd: 0.0061 µM
HLA-A*02:19
  Kd: 0.0678 µM
HLA-A*03:01 [15]
  Kd: ≥ 20 µM
HLA-A*26:01 [16]
  Kd: ≥ 20 µM
HLA-A*29:02
  Kd: ≥ 20 µM
HLA-B*15:01 [17]
  Kd: ≥ 20 µM
HLA-B*15:17
  Kd: ≥ 20 µM
HLA-B*18:01 [18]
  Kd: ≥ 20 µM
HLA-B*27:03
  Kd: ≥ 20 µM
HLA-B*46:01 [19]
  Kd: ≥ 20 µM
HLA-B*51:01
  Kd: ≥ 20 µM
HLA-B*57:01
  Kd: ≥ 20 µM

Reference: the Immune Epitope Database (IEDB)
